Results as given in patent publication US20150344570A1 (published 2015).

T1: FcγRIIa R (FcγRIIa, allotype with Arg at position 131), extracellular domain with C-terminal His tag (human, UniProt P12318 34-217)
T1 construct: extracellular domain; also called FcγRIIa R type; 2aR
T1 sequence (looked up): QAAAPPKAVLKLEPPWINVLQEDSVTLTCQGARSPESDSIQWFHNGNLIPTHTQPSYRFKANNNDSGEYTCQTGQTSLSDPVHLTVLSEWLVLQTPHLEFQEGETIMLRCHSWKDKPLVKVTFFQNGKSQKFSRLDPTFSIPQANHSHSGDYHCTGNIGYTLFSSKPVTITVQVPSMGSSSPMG


Target: T1, FcγRIIa R (FcγRIIa, allotype with Arg …)
Assay: SPR (Biacore), antibody captured on antigen peptide chip, FcγR as analyte; relative binding

| Binder | He/Con_2aR |
| --- | --- |
| GpH7-A5/GpH7-B3 variant S337_11K/GpL16-k0 (antibody, human IgG1, kappa, also called He Ab) heavy 1: not shown heavy 2: not shown light: DIVMTQSPLSLPVTPGEPASISCQASESLVHSNRNTYLHWYLQKPGQSPQLLIYKVSNRFSGVPDRFSGSGSGTDFTLKISRVEAEDVGVYYCSQNTHVPPTFGQGTKVEIERTVAAPSVFIFPPSDEQLKSGTASVVCLLNNFYPREAKVQWKVDNALQSGNSQESVTEQDSKDSTYSLSSTLTLSKADYEKHKVYACEVTHQGLSSPVTKSFNRGEC | 103 % of GpH7-A5/GpH7-B3/GpL16-k0 (=100) |
| GpH7-A5/GpH7-B3 variant V266_06M/GpL16-k0 (antibody, human IgG1, kappa, also called He Ab) heavy 1: not shown heavy 2: not shown light: DIVMTQSPLSLPVTPGEPASISCQASESLVHSNRNTYLHWYLQKPGQSPQLLIYKVSNRFSGVPDRFSGSGSGTDFTLKISRVEAEDVGVYYCSQNTHVPPTFGQGTKVEIERTVAAPSVFIFPPSDEQLKSGTASVVCLLNNFYPREAKVQWKVDNALQSGNSQESVTEQDSKDSTYSLSSTLTLSKADYEKHKVYACEVTHQGLSSPVTKSFNRGEC | 150 % of GpH7-A5/GpH7-B3/GpL16-k0 (=100) |
| GpH7-A5/GpH7-B3 variant S337_12R/GpL16-k0 (antibody, human IgG1, kappa, also called He Ab) heavy 1: not shown heavy 2: not shown light: DIVMTQSPLSLPVTPGEPASISCQASESLVHSNRNTYLHWYLQKPGQSPQLLIYKVSNRFSGVPDRFSGSGSGTDFTLKISRVEAEDVGVYYCSQNTHVPPTFGQGTKVEIERTVAAPSVFIFPPSDEQLKSGTASVVCLLNNFYPREAKVQWKVDNALQSGNSQESVTEQDSKDSTYSLSSTLTLSKADYEKHKVYACEVTHQGLSSPVTKSFNRGEC | 107 % of GpH7-A5/GpH7-B3/GpL16-k0 (=100) |
| GpH7-A5/GpH7-B3 variant S337_15Y/GpL16-k0 (antibody, human IgG1, kappa, also called He Ab) heavy 1: not shown heavy 2: not shown light: DIVMTQSPLSLPVTPGEPASISCQASESLVHSNRNTYLHWYLQKPGQSPQLLIYKVSNRFSGVPDRFSGSGSGTDFTLKISRVEAEDVGVYYCSQNTHVPPTFGQGTKVEIERTVAAPSVFIFPPSDEQLKSGTASVVCLLNNFYPREAKVQWKVDNALQSGNSQESVTEQDSKDSTYSLSSTLTLSKADYEKHKVYACEVTHQGLSSPVTKSFNRGEC | 105 % of GpH7-A5/GpH7-B3/GpL16-k0 (=100) |
| GpH7-A5/GpH7-B3 variant T335_16H/GpL16-k0 (antibody, human IgG1, kappa, also called He Ab) heavy 1: not shown heavy 2: not shown light: DIVMTQSPLSLPVTPGEPASISCQASESLVHSNRNTYLHWYLQKPGQSPQLLIYKVSNRFSGVPDRFSGSGSGTDFTLKISRVEAEDVGVYYCSQNTHVPPTFGQGTKVEIERTVAAPSVFIFPPSDEQLKSGTASVVCLLNNFYPREAKVQWKVDNALQSGNSQESVTEQDSKDSTYSLSSTLTLSKADYEKHKVYACEVTHQGLSSPVTKSFNRGEC | 108 % of GpH7-A5/GpH7-B3/GpL16-k0 (=100) |
| GpH7-A5/GpH7-B3 variant T335_20W/GpL16-k0 (antibody, human IgG1, kappa, also called He Ab) heavy 1: not shown heavy 2: not shown light: DIVMTQSPLSLPVTPGEPASISCQASESLVHSNRNTYLHWYLQKPGQSPQLLIYKVSNRFSGVPDRFSGSGSGTDFTLKISRVEAEDVGVYYCSQNTHVPPTFGQGTKVEIERTVAAPSVFIFPPSDEQLKSGTASVVCLLNNFYPREAKVQWKVDNALQSGNSQESVTEQDSKDSTYSLSSTLTLSKADYEKHKVYACEVTHQGLSSPVTKSFNRGEC | 109 % of GpH7-A5/GpH7-B3/GpL16-k0 (=100) |
| GpH7-A5/GpH7-B3 variant T335_05P/GpL16-k0 (antibody, human IgG1, kappa, also called He Ab) heavy 1: not shown heavy 2: not shown light: DIVMTQSPLSLPVTPGEPASISCQASESLVHSNRNTYLHWYLQKPGQSPQLLIYKVSNRFSGVPDRFSGSGSGTDFTLKISRVEAEDVGVYYCSQNTHVPPTFGQGTKVEIERTVAAPSVFIFPPSDEQLKSGTASVVCLLNNFYPREAKVQWKVDNALQSGNSQESVTEQDSKDSTYSLSSTLTLSKADYEKHKVYACEVTHQGLSSPVTKSFNRGEC | 104 % of GpH7-A5/GpH7-B3/GpL16-k0 (=100) |
| GpH7-A5/GpH7-B3 variant T335_02A/GpL16-k0 (antibody, human IgG1, kappa, also called He Ab) heavy 1: not shown heavy 2: not shown light: DIVMTQSPLSLPVTPGEPASISCQASESLVHSNRNTYLHWYLQKPGQSPQLLIYKVSNRFSGVPDRFSGSGSGTDFTLKISRVEAEDVGVYYCSQNTHVPPTFGQGTKVEIERTVAAPSVFIFPPSDEQLKSGTASVVCLLNNFYPREAKVQWKVDNALQSGNSQESVTEQDSKDSTYSLSSTLTLSKADYEKHKVYACEVTHQGLSSPVTKSFNRGEC | 102 % of GpH7-A5/GpH7-B3/GpL16-k0 (=100) |
| GpH7-A5/GpH7-B3 variant S337_19Q/GpL16-k0 (antibody, human IgG1, kappa, also called He Ab) heavy 1: not shown heavy 2: not shown light: DIVMTQSPLSLPVTPGEPASISCQASESLVHSNRNTYLHWYLQKPGQSPQLLIYKVSNRFSGVPDRFSGSGSGTDFTLKISRVEAEDVGVYYCSQNTHVPPTFGQGTKVEIERTVAAPSVFIFPPSDEQLKSGTASVVCLLNNFYPREAKVQWKVDNALQSGNSQESVTEQDSKDSTYSLSSTLTLSKADYEKHKVYACEVTHQGLSSPVTKSFNRGEC | 106 % of GpH7-A5/GpH7-B3/GpL16-k0 (=100) |
| GpH7-A5/GpH7-B3 variant T335_07I/GpL16-k0 (antibody, human IgG1, kappa, also called He Ab) heavy 1: not shown heavy 2: not shown light: DIVMTQSPLSLPVTPGEPASISCQASESLVHSNRNTYLHWYLQKPGQSPQLLIYKVSNRFSGVPDRFSGSGSGTDFTLKISRVEAEDVGVYYCSQNTHVPPTFGQGTKVEIERTVAAPSVFIFPPSDEQLKSGTASVVCLLNNFYPREAKVQWKVDNALQSGNSQESVTEQDSKDSTYSLSSTLTLSKADYEKHKVYACEVTHQGLSSPVTKSFNRGEC | 109 % of GpH7-A5/GpH7-B3/GpL16-k0 (=100) |
| GpH7-A5/GpH7-B3 variant T335_12R/GpL16-k0 (antibody, human IgG1, kappa, also called He Ab) heavy 1: not shown heavy 2: not shown light: DIVMTQSPLSLPVTPGEPASISCQASESLVHSNRNTYLHWYLQKPGQSPQLLIYKVSNRFSGVPDRFSGSGSGTDFTLKISRVEAEDVGVYYCSQNTHVPPTFGQGTKVEIERTVAAPSVFIFPPSDEQLKSGTASVVCLLNNFYPREAKVQWKVDNALQSGNSQESVTEQDSKDSTYSLSSTLTLSKADYEKHKVYACEVTHQGLSSPVTKSFNRGEC | 100 % of GpH7-A5/GpH7-B3/GpL16-k0 (=100) |
